Biological target: BK α W176C (S2–S3 loop) in the pWTb background (mouse)
Assay: cross-linking

Substance: BK β1 subunit G12C (TM1 flank) in the pWT β1 background (from UniProt Q16558-1 1-191) (natural protein)
- extent of cross-linking: 80%

Source: paper PMC4338161
